Test results: patent US20220213213A1 (published 2022)

T1: human/mouse 5T4 chimera aa173-420 (human/mouse chimera, UniProt Q13641 32-420)
T1 chain: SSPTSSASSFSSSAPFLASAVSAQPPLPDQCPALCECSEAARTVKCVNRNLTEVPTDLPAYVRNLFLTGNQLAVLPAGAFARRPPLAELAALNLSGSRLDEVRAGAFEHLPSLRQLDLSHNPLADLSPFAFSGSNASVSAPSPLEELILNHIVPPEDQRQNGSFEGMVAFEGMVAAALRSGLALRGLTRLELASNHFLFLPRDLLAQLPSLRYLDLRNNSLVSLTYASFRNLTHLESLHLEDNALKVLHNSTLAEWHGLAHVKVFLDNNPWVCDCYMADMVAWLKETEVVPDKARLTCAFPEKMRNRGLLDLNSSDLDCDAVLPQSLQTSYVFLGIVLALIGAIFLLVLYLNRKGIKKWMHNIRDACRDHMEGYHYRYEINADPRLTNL

T2: 5T4 on the SPR chip (amine-coupled on Biacore; biotinylated on MASS-1) (UniProt Q13641 32-355, limits assumed, biotinylated in the MASS-1 assays)
T2 construct: also called biotinylated 5T4
T2 sequence (looked up): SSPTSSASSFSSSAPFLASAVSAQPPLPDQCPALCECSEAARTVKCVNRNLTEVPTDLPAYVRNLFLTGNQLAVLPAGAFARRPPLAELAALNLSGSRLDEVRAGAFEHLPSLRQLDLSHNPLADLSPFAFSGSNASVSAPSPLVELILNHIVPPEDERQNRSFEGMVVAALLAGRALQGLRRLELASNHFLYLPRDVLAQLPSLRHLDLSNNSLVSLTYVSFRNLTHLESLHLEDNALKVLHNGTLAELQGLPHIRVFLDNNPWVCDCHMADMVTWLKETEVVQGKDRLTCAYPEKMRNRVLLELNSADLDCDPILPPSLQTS

T3: 5T4-Fc (obtained from Peter L. Stern, University of Manchester) (human, UniProt Q13641 32-355)
T3 construct: also called h5T4-Fc; recombinant 5T4; not shown: Fc part not specified
T3 sequence (looked up): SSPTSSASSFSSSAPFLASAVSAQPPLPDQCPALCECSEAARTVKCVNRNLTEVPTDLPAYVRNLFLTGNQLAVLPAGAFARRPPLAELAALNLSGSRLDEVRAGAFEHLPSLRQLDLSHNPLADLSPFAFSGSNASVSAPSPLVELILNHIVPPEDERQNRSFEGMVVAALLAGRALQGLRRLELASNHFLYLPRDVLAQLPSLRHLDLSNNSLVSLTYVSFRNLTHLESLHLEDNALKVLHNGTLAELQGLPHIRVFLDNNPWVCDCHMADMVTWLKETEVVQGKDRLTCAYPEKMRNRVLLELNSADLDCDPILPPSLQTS


Experiments:
[1] = target: T1, human/mouse 5T4 chimera aa173-420; experiment: flow cytometry, chimera-transfected cells
[2] = target: T2, 5T4 on the SPR chip (amine-coupled on …); experiment: SPR Biacore, 5T4 amine-coupled, mAb injected
Procedure: Binding kinetics of the 5T4-specific mAbs have been studied using two different SPR-based platforms, the Biacore 3000 (GE Healthcare) and the MASS-1 platform (Sierra Sensors). Briefly, 5T4 was captured at the sensor chip surface either via direct amine coupling (Biacore platform) or using a streptavidin coated chip and biotinylated 5T4 (MASS-1 platform). The different 5T4-specific mAbs were then injected over the chip in increasing concentrations and the association and dissociation rates studied in real time. A 1:1 Langmuir model was used for curve fitting.

[3] = target: T3, 5T4-Fc (obtained from Peter L. Stern, …); experiment: dual ELISA: coated 5T4-Fc, detection with CD137-bio
Procedure: Plates (#655074, Greiner Bio-One GmbH, Germany) were pre-coated with 0.5 μg/ml 5T4-Fc (obtained from Professor Peter Stern, University of Manchester) overnight. CD137-5T4 bsAb were diluted from 8 to 2×10⁻³ μg/ml in 1:4 dilutions and added in duplicates of 50 μl to each well. CD137-bio (Ancell #502-030) was used as detection antibody at 0.5 μg/ml and the binding was detected with Streptavidin-HRP (Pierce #21126). The ELISA was developed with SuperSignal ELISA PICO Chemiluminescent substrate (Thermo Scientific Pierce, Rockford, Ill. USA) during 2-10 minutes and read in an automated microplate based multi-detection reader (FLUOstar OPTIMA, Netherlands).

| Binder | normalized % positive cells [1] | Kd [2] [nM] | koff [2] [s⁻¹] | EC50 [3] [nM] |
| --- | --- | --- | --- | --- |
| 1212/1213 (antibody, V domains shown) VH: EVQLLESGGGLVQPGGSLRLSCAASGFTFSSYAMSWVRQAPGKGLEWVSYISSYGGYTSYADSVKGRFTISRDNSKNTLYLQMNSLRAEDTAVYYCARYHSGVLDYWGQGTLVTVSS VL: DIQMTQSPSSLSASVGDRVTITCRASQSISSYLNWYQQKPGKAPKLLIYAASSLQSGVPSRFSGSGSGTDFTLTISSLQPEDFATYYCQQYYYHYLLTFGQGTKLEIK | -0.01 | 0.18 | 0.00081 | – |
| 1206/1207 (antibody, V domains shown) VH: EVQLLESGGGLVQPGGSLRLSCAASGFTFSGSSMSWVRQAPGKGLEWVSSIYYSGSGTYYADSVKGRFTISRDNSKNTLYLQMNSLRAEDTAVYYCARYGRNVHPYNLDYWGQGTLVTVSS VL: DIQMTQSPSSLSASVGDRVTITCRASQSISSYLNWYQQKPGKAPKLLIYAASSLQSGVPSRFSGSGSGTDFTLTISSLQPEDFATYYCQQGYYYLPTFGQGTKLEIK | 0.3 | – | – | – |
| 1626-1208 (bispecific antibody) chain 1: not shown chain 2: DIQMTQSPSSLSASVGDRVTITCRASQSISSYLNWYQQKPGKAPKLLIYAASSLQSGVPSRFSGSGSGTDFTLTISSLQPEDFATYYCQQGTGYGPLTFGQGTKLEIKRTVAAPSVFIFPPSDEQLKSGTASVVCLLNNFYPREAKVQWKVDNALQSGNSQESVTEQDSKDSTYSLSSTLTLSKADYEKHKVYACEVTHQGLSSPVTKSFNRGEC | – | – | – | 1.91 |
| 1626-1210 (bispecific antibody) heavy: not shown light: DIQMTQSPSSLSASVGDRVTITCRASQSISSYLNWYQQKPGKAPKLLIYAASSLQSGVPSRFSGSGSGTDFTLTISSLQPEDFATYYCQQGTGYGPLTFGQGTKLEIKRTVAAPSVFIFPPSDEQLKSGTASVVCLLNNFYPREAKVQWKVDNALQSGNSQESVTEQDSKDSTYSLSSTLTLSKADYEKHKVYACEVTHQGLSSPVTKSFNRGEC | – | – | – | 0.4 |
